Read-outs that look alike come from different tables or passages of the source.

We go through three molecules from patent US20200071394A1 (HUABO BIOPHARM SHANGHAI, published 2020).

For experiment [1], the target named is T1, Recombinant Human IL-17A, Sino Biological, 12047-HNAS (human, UniProt Q16552 24-155, limits assumed). In words: cell-based or functional assay.
The target of experiment [2] is T2, Recombinant human IL-17B, R&D, 8129-IL (human, UniProt Q9UHF5 21-180).
T2 sequence (looked up): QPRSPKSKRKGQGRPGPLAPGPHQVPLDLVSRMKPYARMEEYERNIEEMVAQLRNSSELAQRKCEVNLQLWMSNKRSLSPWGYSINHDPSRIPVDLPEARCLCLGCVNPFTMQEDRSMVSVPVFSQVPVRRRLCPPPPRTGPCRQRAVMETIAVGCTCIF
As to the kind of experiment: indirect ELISA, IL-17B coated at 1 µg/ml.

For experiment [3], the target named is T1, Recombinant Human IL-17A, Sino …. As to the kind of experiment: indirect ELISA, human IL-17A coated. (In general: In an ELISA, binding on a coated surface is turned into a signal by an enzyme label.)
The target is the same in experiment [4]. As to the kind of experiment: indirect ELISA, human IL-17A coated. This is another data set of the same source.
Experimental: (§1) Human IL-17A was formulated into a 1 μg/ml coating solution with CBS, and added to the ELISA plate at 50 μL/well, and the plate was coated at 2 to 8° C. for 12 hours or longer. The residue coating solution was discarded, 3% milk was added, 200 μL per well, and the plate was blocked at room temperature for 1 hour. Each well was washed with not less than 200 μL of PBST, and the hybridoma supernatant was diluted to 100 μg/ml, and was 10-fold diluted for 10 gradients, and added to the plate at 100 μL/well. […] After incubating for 1 hour at room temperature, each well was added with not less than 200 μL of PBST and washed 4 times, and patted to dryness. TMB development solution was added at 100 μL per well. After reacting for 5 minutes at room temperature, the reaction was quenched by adding 2M H₂SO₄ at 50 μL/well. After the reaction was quenched, the ELISA plate was placed on a microplate reader, and the absorbance OD450 value was read at a wavelength of 450 nm.
For experiment [5], the target named is T3, Recombinant human IL-17D, Sino Biological, 10076-H08S (human, UniProt Q8TAD2 16-202).
T3 sequence (looked up): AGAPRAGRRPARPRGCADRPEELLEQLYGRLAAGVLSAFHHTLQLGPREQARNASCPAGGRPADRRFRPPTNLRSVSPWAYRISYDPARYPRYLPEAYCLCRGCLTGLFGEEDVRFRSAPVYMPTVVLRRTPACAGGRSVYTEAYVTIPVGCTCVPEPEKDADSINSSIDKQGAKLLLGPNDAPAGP
As to the kind of experiment: indirect ELISA, IL-17D coated at 1 µg/ml.
Experimental: as §1

The target of experiment [6] is T1, Recombinant Human IL-17A, Sino …. As to the kind of experiment: cell-based or functional assay. This is another data set of the same source.
In experiment [7] the target is T4, Recombinant human IL-17E, ABGENT, PBV10154r (human, UniProt Q9H293 33-177, limits assumed).
T4 construct: The catalogue number printed is the same as that printed for rat IL-17A; also called IL-25
T4 sequence (looked up): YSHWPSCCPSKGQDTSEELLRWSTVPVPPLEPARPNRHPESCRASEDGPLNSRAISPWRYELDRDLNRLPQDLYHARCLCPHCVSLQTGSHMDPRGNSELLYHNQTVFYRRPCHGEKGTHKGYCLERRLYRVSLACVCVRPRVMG
In words: indirect ELISA, IL-17E coated at 1 µg/ml.
Experimental: as §1

For experiment [8], the target named is T5, Recombinant Rhesus IL-17A, Sino Biological, 90306-KNAB (Rhesus, UniProt F6T3G5 24-155).
T5 construct: also called macaque IL-17A
T5 sequence (F6T3G5 entry or part of it): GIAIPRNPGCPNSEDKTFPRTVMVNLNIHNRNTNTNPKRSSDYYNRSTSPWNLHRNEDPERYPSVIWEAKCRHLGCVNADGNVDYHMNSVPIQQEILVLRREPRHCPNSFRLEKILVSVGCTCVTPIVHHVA
As to the kind of experiment: indirect ELISA, Rhesus IL-17A coated.

Experiment [9] addresses T1, Recombinant Human IL-17A, Sino …. In words: indirect ELISA, human IL-17A coated. The source holds these as a separate data set.
Experimental: as §1
Experiment [10] deals with T6, Recombinant rat IL-17A, ABGENT, PBV10154r (rat, UniProt Q61453 18-150, limits assumed).
T6 sequence (looked up): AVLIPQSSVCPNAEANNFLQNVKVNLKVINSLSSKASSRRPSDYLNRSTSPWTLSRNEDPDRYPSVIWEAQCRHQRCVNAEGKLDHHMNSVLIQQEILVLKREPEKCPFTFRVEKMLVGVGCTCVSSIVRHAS
As to the kind of experiment: indirect ELISA, rat IL-17A coated.

Experiment [11] deals with T7, Recombinant Mouse IL-17A, Sino Biological, PBV10159R-010 (mouse, UniProt Q62386 26-158).
T7 construct: also called murine IL-17A
T7 sequence (looked up): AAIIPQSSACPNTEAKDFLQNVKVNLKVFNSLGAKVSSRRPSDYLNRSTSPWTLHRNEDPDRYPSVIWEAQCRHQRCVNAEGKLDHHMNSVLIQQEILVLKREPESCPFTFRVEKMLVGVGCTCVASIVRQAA
As to the kind of experiment: indirect ELISA, mouse IL-17A coated.
Experimental: as §1

The target of experiment [12] is T1, Recombinant Human IL-17A, Sino …. In words: SPR (Biacore), antibody captured by anti-human antibody on the chip, IL-17A as analyte, 1:1 model.
Experimental: In this example, the antigen-antibody binding kinetics and affinity were determined using BIACORE method.
Human Antibody Capture Antiboy was amino-coupled immobilized on the Sereis S Sensor Chip CMS chip using Amine Coupling Kit, anti-Human Capture-CMS chip. The chip was placed at room temperature for 20-30 mins, and loaded into the instrument. The antigen was diluted with equilibration buffer at an initial dilution of lOnM, and was diluted for 5 concentration gradients. 2 zero concentrations (i.e., equilibration buffer) and one repeat concentration (generally the lowest concentration repeat) were set. The antibody sample was diluted to the experimental working concentration with an equilibration buffer and sealed at 2-8° C.
The target is the same in experiment [13]. In words: indirect ELISA, human IL-17A coated. The source holds these as a separate data set.
Experimental: as §1
Experiment [14] shares this target. In words: indirect ELISA, human IL-17A coated. The source holds these as a separate data set.
Experimental: as §1
In experiment [15] the target is T7, Recombinant Mouse IL-17A, Sino …. As to the kind of experiment: indirect ELISA, mouse IL-17A coated. The source holds these as a separate data set.
Experimental: as §1
Experiment [16] concerns the target T1, Recombinant Human IL-17A, Sino …. In words: indirect ELISA, human IL-17A coated, hybridoma supernatant.
Experimental: as §1

T1 sequence (Q16552 24-155 limits assumed, form in doubt): as the sequence (F6T3G5 entry or part of it) above, with A3T, T17N, V77I, R104P counted along it

B1: humanized anti-IL-17A antibody HB0017 (antibody, human IgG1, V domains shown)
VH: QVQLVQSGSELKKPGASVKVSCKASEYIFTNYGMNWVKQAPGQGFEWMGWIDTNTGEPTYAQGFTGRFVFSLDTSVSTAYLQISSLKAEDTATYYCANYGWGYFDYWGQGTTVTVSS
VL: DVVMTQTPPSLPVNPGEPASISCRSSQSLVHSNGYTYLHWYLQKPGQSPQLLIYKVSNHLSGVPDRFSGSGSGTDFTLKISWVEAEDVGVYFCSQSTHVPYTFGGGTKLEIK
notes: also called HB0017 antibody; HBH17 antibody
As to B1, the “IC50 of IL-6 release by HT1080 cells stimulated with IL-17A and TNFα” value in experiment [1] came out at 0.09 µg/mL. For the same molecule, the binding result in experiment [2], in [5] and in [7] was “no binding” each time. Also, the “improvement of EC50 against the chimeric antibody” value in experiment [3] was around 150%. Besides, the “improvement of EC50 against the original murine antibody” value in experiment [3] is around 11.6 times. Moreover, the EC50 (usually the concentration that produces a half-maximal response) in experiment [4] came out at 0.0154 µg/mL; in [8], 0.088 µg/mL; in [9] it was 0.0154 µg/mL; in [10] it was 0.24 µg/mL; in experiment [11], 0.075 µg/mL; in experiment [13] it was 0.0154 µg/mL. The “biological activity (IL-6 release by HT1080 cells) against the positive control antibody” value in experiment [6] is around 6 fold. Further, in experiment [12], the Kd (as a rule, the constant that tells how readily two partners part at equilibrium) was found to be 0.0198 nM.

B2: Chimeric antibody (mouse 7D6/5H8 VH and VL on human IgG1 and k constant regions) (antibody, V domains shown)
VH: QIQLVQSGPELKKPGETVKISCKASEYIFTNYGMNWVKEAPGKAFKWMGWIDTNTGEPTYAEDFKGRFAFSLDSSATSAFLQISNLKDDDTGTYFCANYGWGYFDYWGQGTTLTVSS
VL: DVVMTQTPLSLPVSLRDQASISCISSQSLVHSNGYTYLHWYLQKPGQSPKLLIYKVSNRFSGVPDRFSGSGSGTDFTLKISRVEAADLGVYFCSQSTHVPYTFGGGTKLEIK
notes: Human IgG1 heavy chain constant region and human kappa light chain constant region; Expressed in CHO-K1 cells
B2: the concentration giving a half-maximal response (EC50) in experiment [14] came out at 0.0386 µg/mL; in experiment [15], 0.0392 µg/mL.

B3: mouse anti-human IL-17A monoclonal antibody of hybridoma 7D6/5H8 (antibody, V domains shown)
VH: B2 VH
VL: B2 VL
notes: Mouse antibody from hybridoma supernatant; also called original murine antibody; IL17-HC1 / IL17-LC1
As for B3, the EC50 in experiment [16] came to 0.194 µg/mL.
